From patent US20140179896A1 (published 2014)

target: T1, human vascular endothelial growth factor receptor-2 Fc chimera (KDR-Fc) (human, UniProt P35968 20-764); assay: radioactive equilibrium binding, 1 nM KDR-Fc
T1 construct: range 1-764; also called human VEGFR-2; VEGF-R2-Fc; not shown: human IgG1 Fc
Method: To prepare ³⁵S-labeled binding proteins for analysis, mRNA was prepared as described above for RNA-protein fusion production but the linker ligation step was omitted. The mRNA was expressed using rabbit reticulocyte lysate translation kit (Ambion) in the presence of ³⁵S-labeled Met at 30° C. for 1 hour. Expressed protein was purified on M2-agarose Flag beads (Sigma) as described above. This procedure produced the encoded protein without the nucleic acid tail. In a direct binding assay, VEGF-R2-Fc fusions in concentrations ranging from 0 to 200 nM were added to a constant concentration of the purified protein (0.2 or 0.5 nM) and incubated at 30° C. for 1 hour in buffer B. The receptor-binder complexes were captured using Protein A magnetic beads for another 10 minutes at room temperature using a Kingfisher™ The beads were washed with six reaction volumes of buffer B. The protein was eluted from the beads with 100 μL of 0.1 M KOH. […] of the reaction mixture and elution were dried onto a LumaPlate-96 (Packard) and the amount of ³⁵S on the plate was measured using a TopCount NXT instrument (Packard). The amount of fibronectin-based scaffold protein bound to the target was estimated as a percent of radioactivity eluted from Protein A magnetic beads compare to radioactivity in the reaction mixture. Nonspecific binding of fibronectin-based scaffold proteins to the beads was determined by measuring binding in the absence of KDR-Fc and represented less than 1-2% of the input. Specific binding was obtained through subtraction of nonspecific binding from total binding. Data was analyzed using the GraphPad Prizm software (GraphPad Software, Inc, San Diego, Calif.), fitted using a one site, non-linear binding equation.

T1 sequence (P35968 20-764 limits assumed, change not shown, form in doubt): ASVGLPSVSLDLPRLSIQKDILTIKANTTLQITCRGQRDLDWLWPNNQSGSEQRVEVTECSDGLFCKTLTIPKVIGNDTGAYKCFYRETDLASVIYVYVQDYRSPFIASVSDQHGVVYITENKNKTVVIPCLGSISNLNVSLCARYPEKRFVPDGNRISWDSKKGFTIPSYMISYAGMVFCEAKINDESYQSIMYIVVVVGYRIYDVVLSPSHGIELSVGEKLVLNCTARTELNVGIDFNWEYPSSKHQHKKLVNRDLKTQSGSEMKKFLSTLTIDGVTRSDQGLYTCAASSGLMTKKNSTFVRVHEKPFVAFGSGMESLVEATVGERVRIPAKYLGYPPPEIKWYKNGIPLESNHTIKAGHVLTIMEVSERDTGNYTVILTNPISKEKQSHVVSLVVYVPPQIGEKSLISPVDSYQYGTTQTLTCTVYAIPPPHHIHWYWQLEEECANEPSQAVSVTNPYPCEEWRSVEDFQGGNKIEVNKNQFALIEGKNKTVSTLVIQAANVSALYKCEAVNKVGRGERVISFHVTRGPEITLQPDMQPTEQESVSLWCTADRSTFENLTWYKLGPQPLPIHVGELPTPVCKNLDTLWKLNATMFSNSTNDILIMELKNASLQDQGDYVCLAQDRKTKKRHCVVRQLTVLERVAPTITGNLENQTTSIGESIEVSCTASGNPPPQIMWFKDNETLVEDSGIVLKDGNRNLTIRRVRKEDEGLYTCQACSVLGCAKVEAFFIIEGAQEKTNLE

| Binder | Binding to 1 nM KDR, % [%] |
| --- | --- |
| 2′Del F8 PR4 (designed binder, Del 1-8) EVVAATPTSLLISWRHPHFPTRYYRITYGETGGNSPVQEFTVPLQPPTATISGLKPGVDYTITGYAVTAGPGAHELLTPISINYRT | 42 |
| 2′Del H12 PR4 (designed binder, Del 1-8) EVVAATPTSLLISWRHPHFPTRYYRITYGETGGNSPVQEFTVPLQPPTATISGLKPGVDYTITGYAVTAGGNGHELLTPISINYRT | 24 |
| 2′Del F11 PR4 (designed binder, Del 1-8) EVVAATPTSLLISWRHPHFPTRYYRITYGETGGNSPVQEFTVPLQPPTATISGLKPGVDYTITGYAVTMGQNDKELITPISINYRT | 27 |
| 2′DelC7 PR4 (designed binder, Del 1-8) EVVAATPTSLLISWRHPHFPTRYYRITYGETGGNSPVQEFTVPLQPPTATISGLKPGVDYTITGYAVTWDQNGHVLLTPISINYRT | 19 |
| 2′DelC3 PR4 (designed binder, Del 1-8) EVVAATPTSLLISWRHPHFPTRYYRITYGETGGNSPVQEFTVPLQPPTATISGLKPGVDYTITGYAVTWAQNGRELLTPISINYRT | 29 |
| 2′Del G11 PR4 (designed binder, Del 1-8) EVVAATPTSLLISWRHPHFPTRYYRITYGETGGNSPVQEFTVPLQPPTATISGLKPGVDYTITGYAVTGGQMNRVLMTPISINYRT | 22 |
| 2′Del H6 PR4 (designed binder, Del 1-8) EVVAATPTSLLISWRHPHFPTRYYRITYGETGGNSPVQEFTVPLQPPTATISGLKPGVDYTITGYAVTTGHHDHELIIPISINYRT | 28 |
| 2′DelB7 PR4 (designed binder, Del 1-8) EVVAATPTSLLISWRHPHFPTRYYRITYGETGGNSPVQEFTVPLQPPTATISGLKPGVDYTITGYAVTVGYNNRELLTPISINYRT | 32 |
| 2′DelH9 PR4 (designed binder, Del 1-8) EVVAATPTSLLISWRHPHFPTRYYRITYGETGGNSPVQEFTVPLQPPTATISGLKPGVDYTITGYAVTVGWSGHELFVPISINYRT | 20 |
| 2′DelE4 PR4 (designed binder, Del 1-8) EVVAATPTSLLISWRHPHFPTRYYRITYGETGGNSPVQEFTVPLQPPTATISGLKPGVDYTITGYAVTVHWNGHELMTPISINYRT | 34 |
| 2′DelA5 PR4 (designed binder, Del 1-8) EVVAATPTSLLISWRHPHFPTRYYRITYGETGGNSPVQEFTVPLQPPTATISGLKPGVDYTITGYAVTWNQNGQELFTPISINYRT | 20 |
| 2′Del G9 PR4 (designed binder, Del 1-8) EVVAATPTSLLISWRHPHFPTRYYRITYGETGGNSPVQEFTVPLQPPTATISGLKPGVDYTITGYAVTVEQNGRELIIPISINYRT | 33 |
| 2′Del H5 PR4 (designed binder, Del 1-8) EVVAATPTSLLISWRHPHFPTRYYRITYGETGGNSPVQEFTVPLQPPTATISGLKPGVDYTITGYAVTLGKDVRELLTPISINYRT | 34 |
| 2′DelG5 PR4 (designed binder, Del 1-8) EVVAATPTSLLISWRHPHFPTRYYRITYGETGGNSPVQEFTVPLQPPTATISGLKPGVDYTITGYAVTVGQNNHELLTPISINYRT | 19 |
| 2′DelH4 PR4 (designed binder, Del 1-8) EVVAATPTSLLISWRHPHFPTRYYRITYGETGGNSPVQEFTVPLQPPTATISGLKPGVDYTITGYAVTVGPNERMLMTPISINYRT | 30 |
